Results as given in the supplement of paper PMC9112550, “Optimization of the antimicrobial peptide Bac7 by deep mutational scanning” (BMC Biology, 2022).

Test system: Escherichia coli TOP10
Assay: shrunken log2 fold change of peptide-encoding DNA abundance (4.5 h post-induction vs induction); higher = less antimicrobial activity (less host growth inhibition)
Conditions: time post-induction: 4.5 h; library: site-saturation at positions 5, 18, 19, 20
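Also: peptides expressed intracellularly from a pBAD plasmid library in pooled LB shake-flask culture, induced with 0.3% L-arabinose, DNA abundance read by NGS, three biological replicates, DESeq2 with apeglm shrinkage.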

Sequence	shrunken log2 fold change
RRIRSRPPRLPRPRPRPHSGPRP	0.0329
RRIRSRPPRLPRPRPRPHSLPRP	0.0616
RRIRSRPPRLPRPRPRPHSQPRP	0.0681
RRIRSRPPRLPRPRPRPHVDPRP	-0.0165
RRIRSRPPRLPRPRPRPHYGPRP	-0.00176
RRIRSRPPRLPRPRPRPIAMPRP	-0.127
RRIRSRPPRLPRPRPRPIAWPRP	-0.0861
RRIRSRPPRLPRPRPRPICTPRP	0.166
RRIRSRPPRLPRPRPRPIDEPRP	0.0325
RRIRSRPPRLPRPRPRPIDIPRP	-0.3
RRIRSRPPRLPRPRPRPIEVPRP	0.0392
RRIRSRPPRLPRPRPRPIFNPRP	-0.317
RRIRSRPPRLPRPRPRPIFRPRP	0.0112
RRIRSRPPRLPRPRPRPIGMPRP	-0.35
RRIRSRPPRLPRPRPRPIHHPRP	-0.362
RRIRSRPPRLPRPRPRPIHNPRP	-0.415
RRIRSRPPRLPRPRPRPIIAPRP	-0.0683
RRIRSRPPRLPRPRPRPIIGPRP	-0.276
RRIRSRPPRLPRPRPRPIIIPRP	-0.159
RRIRSRPPRLPRPRPRPIIPPRP	-0.188
RRIRSRPPRLPRPRPRPIKCPRP	-0.0332
RRIRSRPPRLPRPRPRPIMFPRP	-0.304
RRIRSRPPRLPRPRPRPINTPRP	-0.648
RRIRSRPPRLPRPRPRPIQMPRP	-0.103
RRIRSRPPRLPRPRPRPIRFPRP	-0.964

Sequence	shrunken log2 fold change
RRIRSRPPRLPRPRPRPIRNPRP	-0.379
RRIRSRPPRLPRPRPRPISAPRP	-0.256
RRIRSRPPRLPRPRPRPITHPRP	-0.419
RRIRSRPPRLPRPRPRPITPPRP	0.0356
RRIRSRPPRLPRPRPRPITTPRP	-0.578
RRIRSRPPRLPRPRPRPIVFPRP	-0.0485
RRIRSRPPRLPRPRPRPIVSPRP	0.0431
RRIRSRPPRLPRPRPRPIWKPRP	0.346
RRIRSRPPRLPRPRPRPIWLPRP	0.222
RRIRSRPPRLPRPRPRPIWPPRP	0.0426
RRIRSRPPRLPRPRPRPIYCPRP	-0.876
RRIRSRPPRLPRPRPRPIYFPRP	-0.397
RRIRSRPPRLPRPRPRPKDHPRP	-0.131
RRIRSRPPRLPRPRPRPKDSPRP	0.1
RRIRSRPPRLPRPRPRPKGLPRP	-0.0223
RRIRSRPPRLPRPRPRPKLAPRP	0.245
RRIRSRPPRLPRPRPRPKMFPRP	-0.00685
RRIRSRPPRLPRPRPRPKMKPRP	0.912
RRIRSRPPRLPRPRPRPKNQPRP	-0.177
RRIRSRPPRLPRPRPRPKPQPRP	0.524
RRIRSRPPRLPRPRPRPKPRPRP	0.594
RRIRSRPPRLPRPRPRPKQIPRP	0.0712
RRIRSRPPRLPRPRPRPKQSPRP	0.328
RRIRSRPPRLPRPRPRPKRIPRP	-0.275
RRIRSRPPRLPRPRPRPKSAPRP	0.403

Sequence	shrunken log2 fold change
RRIRSRPPRLPRPRPRPKSKPRP	-0.0869
RRIRSRPPRLPRPRPRPKSVPRP	-0.0236
RRIRSRPPRLPRPRPRPKWGPRP	0.228
RRIRSRPPRLPRPRPRPKWLPRP	0.104
RRIRSRPPRLPRPRPRPLACPRP	0.268
RRIRSRPPRLPRPRPRPLAIPRP	-0.0883
RRIRSRPPRLPRPRPRPLARPRP	0.0314
RRIRSRPPRLPRPRPRPLCHPRP	-0.157
RRIRSRPPRLPRPRPRPLCRPRP	-0.0794
RRIRSRPPRLPRPRPRPLEAPRP	0.177
RRIRSRPPRLPRPRPRPLEDPRP	0.0492
RRIRSRPPRLPRPRPRPLEWPRP	0.14
RRIRSRPPRLPRPRPRPLFHPRP	-0.63
RRIRSRPPRLPRPRPRPLGAPRP	0.295
RRIRSRPPRLPRPRPRPLGTPRP	-0.216
RRIRSRPPRLPRPRPRPLHVPRP	-0.245
RRIRSRPPRLPRPRPRPLIIPRP	-0.678
RRIRSRPPRLPRPRPRPLKKPRP	0.0577
RRIRSRPPRLPRPRPRPLLTPRP	0.085
RRIRSRPPRLPRPRPRPLMRPRP	0.948
RRIRSRPPRLPRPRPRPLNCPRP	-0.374
RRIRSRPPRLPRPRPRPLNDPRP	-0.182
RRIRSRPPRLPRPRPRPLNTPRP	-0.563
RRIRSRPPRLPRPRPRPLNYPRP	-0.166
RRIRSRPPRLPRPRPRPLPEPRP	0.278

Sequence	shrunken log2 fold change
RRIRSRPPRLPRPRPRPLPLPRP	-0.0835
RRIRSRPPRLPRPRPRPLPNPRP	-0.215
RRIRSRPPRLPRPRPRPLRAPRP	0.858
RRIRSRPPRLPRPRPRPLRQPRP	0.364
RRIRSRPPRLPRPRPRPLRRPRP	0.404
RRIRSRPPRLPRPRPRPLSYPRP	-0.464
RRIRSRPPRLPRPRPRPLWNPRP	-0.25
RRIRSRPPRLPRPRPRPLYGPRP	-0.565
RRIRSRPPRLPRPRPRPMCDPRP	-0.147
RRIRSRPPRLPRPRPRPMCWPRP	0.318
RRIRSRPPRLPRPRPRPMEIPRP	0.014
RRIRSRPPRLPRPRPRPMEWPRP	0.199
RRIRSRPPRLPRPRPRPMFCPRP	-0.285
RRIRSRPPRLPRPRPRPMFKPRP	-0.407
RRIRSRPPRLPRPRPRPMIIPRP	-0.182
RRIRSRPPRLPRPRPRPMLFPRP	-0.196
RRIRSRPPRLPRPRPRPMLVPRP	-0.0894
RRIRSRPPRLPRPRPRPMLYPRP	0.0575
RRIRSRPPRLPRPRPRPMMKPRP	1.75
RRIRSRPPRLPRPRPRPMMMPRP	-0.83
RRIRSRPPRLPRPRPRPMNLPRP	0.048
RRIRSRPPRLPRPRPRPMPHPRP	0.00101
RRIRSRPPRLPRPRPRPMPLPRP	-0.0685
RRIRSRPPRLPRPRPRPMPWPRP	-0.039
RRIRSRPPRLPRPRPRPMQSPRP	-0.00143

Sequence	shrunken log2 fold change
RRIRSRPPRLPRPRPRPMSGPRP	0.131
RRIRSRPPRLPRPRPRPMTDPRP	-0.222
RRIRSRPPRLPRPRPRPMYKPRP	-1.13
RRIRSRPPRLPRPRPRPMYYPRP	-0.468
RRIRSRPPRLPRPRPRPNCIPRP	-0.416
RRIRSRPPRLPRPRPRPNDDPRP	0.0402
RRIRSRPPRLPRPRPRPNEPPRP	-0.0883
RRIRSRPPRLPRPRPRPNFNPRP	-0.298
RRIRSRPPRLPRPRPRPNFSPRP	-0.112
RRIRSRPPRLPRPRPRPNGPPRP	-0.42
RRIRSRPPRLPRPRPRPNGQPRP	0.0535
RRIRSRPPRLPRPRPRPNIVPRP	0.238
RRIRSRPPRLPRPRPRPNKQPRP	-0.221
RRIRSRPPRLPRPRPRPNKWPRP	-0.0551
RRIRSRPPRLPRPRPRPNLRPRP	0.0182
RRIRSRPPRLPRPRPRPNLWPRP	-0.075
RRIRSRPPRLPRPRPRPNMGPRP	-0.351
RRIRSRPPRLPRPRPRPNMHPRP	-0.257
RRIRSRPPRLPRPRPRPNMKPRP	-0.436
RRIRSRPPRLPRPRPRPNNNPRP	-0.604
RRIRSRPPRLPRPRPRPNNPPRP	-0.3
RRIRSRPPRLPRPRPRPNNSPRP	-0.724
RRIRSRPPRLPRPRPRPNPLPRP	0.182
RRIRSRPPRLPRPRPRPNRDPRP	-0.233
RRIRSRPPRLPRPRPRPNRLPRP	-0.205

Sequence	shrunken log2 fold change
RRIRSRPPRLPRPRPRPNSKPRP	-0.382
RRIRSRPPRLPRPRPRPNSRPRP	-0.105
RRIRSRPPRLPRPRPRPNTAPRP	-0.0399
RRIRSRPPRLPRPRPRPNVDPRP	0.0085
RRIRSRPPRLPRPRPRPNVKPRP	-0.332
RRIRSRPPRLPRPRPRPNWCPRP	0.0144
RRIRSRPPRLPRPRPRPNWIPRP	-0.659
RRIRSRPPRLPRPRPRPNYCPRP	-0.352
RRIRSRPPRLPRPRPRPNYLPRP	-0.071
RRIRSRPPRLPRPRPRPPAWPRP	0.436
RRIRSRPPRLPRPRPRPPCKPRP	-0.163
RRIRSRPPRLPRPRPRPPCNPRP	-0.21
RRIRSRPPRLPRPRPRPPDQPRP	0.674
RRIRSRPPRLPRPRPRPPEEPRP	-0.0451
RRIRSRPPRLPRPRPRPPFTPRP	-0.00795
RRIRSRPPRLPRPRPRPPHHPRP	-0.0759
RRIRSRPPRLPRPRPRPPHQPRP	0.27
RRIRSRPPRLPRPRPRPPKDPRP	-0.0903
RRIRSRPPRLPRPRPRPPKEPRP	1.07
RRIRSRPPRLPRPRPRPPKFPRP	-0.479
RRIRSRPPRLPRPRPRPPKLPRP	-0.11
RRIRSRPPRLPRPRPRPPLSPRP	0.125
RRIRSRPPRLPRPRPRPPMTPRP	0.243
RRIRSRPPRLPRPRPRPPPAPRP	1.04
RRIRSRPPRLPRPRPRPPPPPRP	1.03
